Measured values published in the Human Domainome abundance scans (Beltran et al. 2025).

B1: Storkhead-box protein 2, residues 64 to 141; numbered along this chain, Q9P2F5 (parent)
chain: SPISQSQFIPLGEILCLAISAMNSARKPVTQEALMEHLTTCFPGVPTPSQEILRHTLNTLVRERKIYPTPDGYFIVTP

Variants of: B1
Assay: abundance fitness (aPCA) (normalised: wild type 0, dead -1); higher = more abundant; growth selection in yeast, the domain comes from the species named
Conditions: Homo sapiens

Abundance fitness: each site, then its substitutions
M22: F -0.201; G -0.257; H -0.226; I -0.128; K -0.403; L 0.015; N -0.334; P -0.739; Q -0.226; R -0.205; S -0.306; T -0.616; V -0.354; W -0.336; Y -0.243
N23: A -0.156; C -0.226; D -0.061; E -0.108; F -0.535; G -0.126; H -0.111; I -0.296; K -0.451; L -0.354; M -0.211; P -0.564; Q -0.123; R -0.156; S -0.12; T -0.144; V -0.143; W -0.31; Y -0.357
S24: A -0.002; C -0.084; D -0.018; E 0.009; F -0.162; H -0.141; I 0.018; K 0.037; L -0.078; M -0.125; N 0.063; P -0.34; Q 0.026; R -0.018; T 0.058; V -0.007; W -0.226; Y -0.093
A25: C -0.05; D 0.018; E -0.049; F -0.08; G -0.175; H -0.001; I -0.053; K -0.007; L -0.026; M -0.048; N -0.068; P -0.368; Q -0.021; R -0.066; S -0.055; V -0.033; W -0.189
R26: A -0.021; C -0.115; D -0.011; E -0.016; F -0.089; G -0.009; H -0.09; I -0.199; L -0.078; M -0.124; N 0.023; P -0.195; Q -0.018; S -0.04; T -0.005; V -0.09; W -0.134; Y -0.248
K27: A -0.077; D -0.235; E -0.054; F -0.182; G -0.132; H -0.119; I -0.072; L -0.12; M -0.1; N -0.156; P -0.689; Q 0.064; S -0.045; T 0.034; V -0.079; W -0.184
P28: A -0.016; F -0.187; G -0.133; H -0.015; I -0.091; K -0.076; L -0.2; M -0.005; N -0.024; Q 0.063; R -0.054; S -0.087; T 0.009; V -0.072; W -0.214; Y -0.032
V29: C 0.02; D -0.928; F -0.213; G -0.417; H -0.496; L -0.408; M -0.278; N -1.07; P -0.17; Q -0.386; R -0.792; S -0.065; T -0.162; W -0.363; Y -0.592
T30: A -0.166; C -0.026; D -0.067; F -0.074; G -0.116; I -0.211; K -0.089; L -0.218; M -0.102; N -0.352; P -0.486; Q 0.01; R -0.095; S 0.002; V -0.033; W -0.043; Y -0.142
Q31: A -0.045; C 0.056; E 0.01; F -0.095; G -0.064; H -0.209; I -0.074; K -0.141; L -0.065; M -0.049; N 0.004; P 0.018; R -0.061; S -0.019; T 0.013; V -0.027
